The target of this experiment is T1, 金黄色葡萄球菌B型肠毒素(SEB)抗原 (Staphylococcus aureus enterotoxin B) (Staphylococcus aureus, UniProt P01552 28-266).
T1 sequence: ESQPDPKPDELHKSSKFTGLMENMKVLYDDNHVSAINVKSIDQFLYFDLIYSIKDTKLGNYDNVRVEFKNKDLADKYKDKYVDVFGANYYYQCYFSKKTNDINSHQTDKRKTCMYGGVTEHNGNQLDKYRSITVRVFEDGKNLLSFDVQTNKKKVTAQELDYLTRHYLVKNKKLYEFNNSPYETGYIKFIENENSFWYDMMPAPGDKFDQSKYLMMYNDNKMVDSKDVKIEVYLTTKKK
The experiment is described as follows: monoclonal phage ELISA on coated SEB antigen, anti-M13-HRP, OD450. (An ELISA detects its analyte on a solid surface through an enzyme-linked reagent.)

B1: 抗肠毒素的纳米抗体 (anti-SEB nanobody, heavy chain variable region SEQ ID NO: 8) (VHH)
VHH: QVQLVESGGGSVQAGASLTLSCVVSVRTDSYAMGWMRQAPGKEREVIAGVSWSGQSTTYADSVKGRFTISRDNAKRAVYLQMGNLKPEDTAVYYCAMGRAPFYIGLTSEPEAYESWGQGTQVTVSL
For B1, the binding result is recorded as “binds”.

The values are drawn from patent CN113416248A (INST MILITARY MEDICINE ACADEMY MILITARY SCIENCES PLA, dated 2021).
